Where no end group is shown, it is not given here.
Assays:
calcium channels [1] = conditions: read-out: IC50 values for blocking calcium channels; cerebellar granule cells from 8 day old rats, fura2 fluorescence, 37° C.
calcium channels [2] = target: calcium channels

Molecule | IC50 (calcium channels [1]) | IC50 for blocking calcium channels (decrease in fura2 fluorescence) (calcium channels [2])
COc1ccc(CCN(C)CCCC(C#N)(c2ccc(OC)c(OC)c2)C(C)C)cc1OC (stereo not shown) [Verapamil] | 4.8 µM | 
DCGTIWHYCGTDQSECCEGWKCSRQLCKYVIDW-NH2 (not fully specified (bridges); also: 3 disulfide bonds, pairing not given here) [Heteropoda peptide AU 3] |  | < 3 µM
DDDCGWIMDDCTSDSDCCPNWVCSKTGFVKNICKYEM-NH2 (not fully specified (bridges); also: 3 disulfide bonds, pairing not given here) [Heteropoda peptide AU 5A] |  | < 3 µM
ECGTLFSGCSTHADCCEGFICKLWCRYERTW-NH2 (not fully specified (bridges); also: 3 disulfide bonds, pairing not given here) [Heteropoda peptide AU 5C] |  | < 3 µM
DCGTIWHYCGTDQSECCEGWKCSRQLCKYVIDW-NH2 (not fully specified (bridges); also: 3 disulfide bonds, pairing not given here) [Heteropoda peptide KJ 5] |  | < 3 µM
DDCGKLFSGCDTNADCCEGYVCRLWCKLDW-NH2 (disulfide (positions not given here)) [Heteropoda peptide KJ 6] |  | < 3 µM
DDCGTLFSGCDTSKDCCEGYVCHLWCKYK-NH2 (not fully specified (bridges); also: 3 disulfide bonds, pairing not given here) [Heteropoda peptide KJ 1] |  | < 3 µM
ADCGWLFHSCESNADCCENWACATTGRFRYLCKYQI-NH2 (not fully specified (bridges); also: 3 disulfide bonds, pairing not given here) [Heteropoda peptide AU 5B] |  | < 3 µM
ECGTLFSGCSTHADCCEGFICKLWCRYERTW-NH2 (disulfide (positions not given here)) [Heteropoda peptide KJ 7] |  | < 3 µM
DDCGGLFSGCDSNADCCEGYVCRLWCKYKL-NH2 (not fully specified (bridges); also: 3 disulfide bonds, pairing not given here) [Heteropoda peptide AU 2] |  | < 3 µM

From patent publication US5627154A, “Calcium channel blocking polypeptides from Heteropoda venatoria” (Pfizer Inc., priority 1995, dated 1997)
